According to paper PMC9482650, “Quantitative fragmentomics allow affinity mapping of interactomes” (Nature Communications, 2022):
One block for each binder: values may come before it.

Columns and labels:
Assay in all cases: holdup assay
Set-up in all cases: key: below the threshold = too weak to quantify, mostly under pKd 3.1 to 4
DLG1_2, Q12959 = target: DLG1_2, Q12959
NHERF3_4, Q5T2W1 = target: T1, NHERF3_4, Q5T2W1
T1 sequence (Q5T2W1 373-468, limits assumed, looked up): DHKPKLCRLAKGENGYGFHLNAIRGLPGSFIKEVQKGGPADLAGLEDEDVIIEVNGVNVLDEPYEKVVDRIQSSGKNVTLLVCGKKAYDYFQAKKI

DLG3_1, Q92796 = target: T2, DLG3_1, Q92796
T2 sequence (Q92796 125-227, limits assumed, looked up): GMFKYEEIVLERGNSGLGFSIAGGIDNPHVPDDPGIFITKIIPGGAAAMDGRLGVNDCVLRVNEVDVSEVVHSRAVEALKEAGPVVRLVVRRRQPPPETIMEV

ARHGEF11, O15085 = target: T3, ARHGEF11, O15085
T3 sequence (O15085 42-136, limits assumed, looked up): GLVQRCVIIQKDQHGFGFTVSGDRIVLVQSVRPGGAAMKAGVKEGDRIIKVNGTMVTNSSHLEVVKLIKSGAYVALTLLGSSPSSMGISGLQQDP

TJP1_3, Q07157 = target: TJP1_3, Q07157
PTPN13_1, Q12923 = target: T4, PTPN13_1, Q12923
T4 sequence (Q12923 1088-1188, limits assumed, looked up): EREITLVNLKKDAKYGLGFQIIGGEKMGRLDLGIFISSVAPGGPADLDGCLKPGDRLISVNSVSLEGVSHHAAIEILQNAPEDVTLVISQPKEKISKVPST

MAGI1_1, Q96QZ7 = target: MAGI1_1, Q96QZ7
NHERF2_2, Q15599 = target: NHERF2_2, Q15599
Inadl_1, Q8NI35 = target: Inadl_1, Q8NI35
LNX1_3, Q8TBB1 = target: LNX1_3, Q8TBB1
LRRC7, Q96NW7 = target: T5, LRRC7, Q96NW7
T5 sequence (Q96NW7 1440-1537, limits assumed, looked up): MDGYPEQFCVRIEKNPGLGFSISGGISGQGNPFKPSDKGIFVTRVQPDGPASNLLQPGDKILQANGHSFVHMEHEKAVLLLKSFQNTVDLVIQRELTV

DFNB31_1, Q9P202 = target: T6, DFNB31_1, Q9P202
T6 sequence (Q9P202 135-233, limits assumed, looked up): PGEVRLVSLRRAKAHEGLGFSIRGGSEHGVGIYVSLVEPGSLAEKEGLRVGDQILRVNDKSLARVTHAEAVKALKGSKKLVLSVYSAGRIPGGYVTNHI

MAST2, Q6P0Q8 = target: MAST2, Q6P0Q8
MAGI2_6, Q86UL8 = target: MAGI2_6, Q86UL8
DFNB31_3, Q9P202 = target: T7, DFNB31_3, Q9P202
T7 sequence (Q9P202 811-907, limits assumed, looked up): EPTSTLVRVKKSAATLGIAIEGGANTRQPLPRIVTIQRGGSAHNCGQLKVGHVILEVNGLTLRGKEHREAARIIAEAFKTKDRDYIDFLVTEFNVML

Inadl_9, Q8NI35 = target: Inadl_9, Q8NI35
TIAM2, Q8IVF5 = target: T8, TIAM2, Q8IVF5
T8 sequence (Q8IVF5 885-986, limits assumed, looked up): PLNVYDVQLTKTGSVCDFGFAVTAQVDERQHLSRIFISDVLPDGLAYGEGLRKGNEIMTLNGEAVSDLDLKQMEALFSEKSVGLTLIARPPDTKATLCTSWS

HTRA2, O43464 = target: HTRA2, O43464
AHNAK1, Q09666 = target: AHNAK1, Q09666
LIN7C, Q9NUP9 = target: T9, LIN7C, Q9NUP9
T9 sequence (Q9NUP9 88-185, limits assumed, looked up): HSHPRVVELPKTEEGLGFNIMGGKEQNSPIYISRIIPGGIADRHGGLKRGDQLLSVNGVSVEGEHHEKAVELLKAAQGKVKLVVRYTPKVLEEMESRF

NHERF4_2, Q86UT5 = target: NHERF4_2, Q86UT5
APBA2_1, Q99767 = target: T10, APBA2_1, Q99767
T10 sequence (Q99767 563-664, limits assumed, looked up): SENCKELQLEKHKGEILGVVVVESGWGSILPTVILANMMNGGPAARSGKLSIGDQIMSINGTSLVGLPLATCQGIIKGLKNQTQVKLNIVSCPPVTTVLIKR

DLG1_3, Q12959 = target: DLG1_3, Q12959
MPDZ_12, O75970 = target: T11, MPDZ_12, O75970
T11 sequence (O75970 1857-1958, limits assumed, looked up): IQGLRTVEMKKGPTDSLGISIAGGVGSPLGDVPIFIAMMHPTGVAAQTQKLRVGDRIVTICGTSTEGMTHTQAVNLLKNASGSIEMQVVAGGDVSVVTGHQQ

PDZRN3_1, Q9UPQ7 = target: T12, PDZRN3_1, Q9UPQ7
T12 sequence (Q9UPQ7 244-349, limits assumed, looked up): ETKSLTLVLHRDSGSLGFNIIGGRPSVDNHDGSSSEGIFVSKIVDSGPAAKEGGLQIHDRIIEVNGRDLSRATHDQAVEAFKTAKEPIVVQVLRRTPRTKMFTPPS

NHERF4_4, Q86UT5 = target: NHERF4_4, Q86UT5
[1] = plain residues with an end cap or a label only (N-terminal biotin on a linker: ado-ado)
[2] = modified: acetyl on K at position -1 from the C-terminal residue

Chain of NHERF2_2, Q15599 (Q15599 142-238): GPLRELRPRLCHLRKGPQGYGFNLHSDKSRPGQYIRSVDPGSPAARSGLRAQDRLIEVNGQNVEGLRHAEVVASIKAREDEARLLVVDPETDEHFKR
Chain of MAST2, Q6P0Q8 (Q6P0Q8 1099-1202): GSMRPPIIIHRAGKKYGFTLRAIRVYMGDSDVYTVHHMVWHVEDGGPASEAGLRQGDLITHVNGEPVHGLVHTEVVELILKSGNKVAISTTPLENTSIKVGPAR
Chain of TJP1_3, Q07157 (Q07157 416-512): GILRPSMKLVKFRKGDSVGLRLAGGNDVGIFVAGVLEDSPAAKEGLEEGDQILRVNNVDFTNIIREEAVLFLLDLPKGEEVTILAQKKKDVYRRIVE
Chain of Inadl_9, Q8NI35 (Q8NI35 1530-1615): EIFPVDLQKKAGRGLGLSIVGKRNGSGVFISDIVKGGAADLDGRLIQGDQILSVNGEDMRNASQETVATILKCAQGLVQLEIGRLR
Chain of LNX1_3, Q8TBB1 (Q8TBB1 500-596): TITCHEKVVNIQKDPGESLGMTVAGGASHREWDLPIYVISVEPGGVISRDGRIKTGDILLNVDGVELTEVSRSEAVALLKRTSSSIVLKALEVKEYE
Chain of NHERF4_4, Q86UT5 (Q86UT5 464-550): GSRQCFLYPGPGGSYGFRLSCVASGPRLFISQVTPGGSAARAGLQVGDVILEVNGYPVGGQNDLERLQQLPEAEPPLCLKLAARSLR
Chain of HTRA2, O43464 (O43464 355-458): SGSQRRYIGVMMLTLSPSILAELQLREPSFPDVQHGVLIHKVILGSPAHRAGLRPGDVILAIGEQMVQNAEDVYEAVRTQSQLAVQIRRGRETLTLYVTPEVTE
Chain of AHNAK1, Q09666 (Q09666 4-100): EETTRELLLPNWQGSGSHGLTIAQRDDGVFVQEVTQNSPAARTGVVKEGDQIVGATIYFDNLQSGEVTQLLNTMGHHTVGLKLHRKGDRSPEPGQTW
Chain of Inadl_1, Q8NI35 (Q8NI35 113-229): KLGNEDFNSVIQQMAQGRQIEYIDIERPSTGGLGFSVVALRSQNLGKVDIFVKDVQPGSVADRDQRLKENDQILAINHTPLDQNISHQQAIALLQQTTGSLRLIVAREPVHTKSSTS
Chain of DLG1_2, Q12959 (Q12959 314-412): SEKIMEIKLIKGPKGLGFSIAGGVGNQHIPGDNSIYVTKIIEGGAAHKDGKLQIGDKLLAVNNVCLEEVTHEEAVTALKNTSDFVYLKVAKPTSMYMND
Chain of MAGI2_6, Q86UL8 (Q86UL8 1141-1229): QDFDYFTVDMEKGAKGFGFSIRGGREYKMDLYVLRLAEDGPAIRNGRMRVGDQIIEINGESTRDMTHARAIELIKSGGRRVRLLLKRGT
Chain of DLG1_3, Q12959 (Q12959 457-571): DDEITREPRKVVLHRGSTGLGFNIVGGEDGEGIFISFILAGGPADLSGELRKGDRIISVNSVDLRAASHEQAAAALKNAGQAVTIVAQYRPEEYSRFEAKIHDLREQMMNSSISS
Chain of NHERF4_2, Q86UT5 (Q86UT5 220-308): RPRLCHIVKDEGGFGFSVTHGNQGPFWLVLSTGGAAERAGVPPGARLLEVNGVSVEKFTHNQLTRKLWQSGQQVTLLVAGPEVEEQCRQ
Chain of MAGI1_1, Q96QZ7 (Q96QZ7 1-106): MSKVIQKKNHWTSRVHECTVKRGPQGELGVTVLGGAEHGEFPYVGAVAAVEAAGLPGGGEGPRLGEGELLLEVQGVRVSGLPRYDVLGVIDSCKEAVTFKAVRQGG

pKd (DLG1_2, Q12959; [1]): below the threshold
pKd (NHERF3_4, Q5T2W1; [1]): below the threshold
pKd (DLG3_1, Q92796; [1]): below the threshold
pKd (ARHGEF11, O15085; [1]): below the threshold
pKd (TJP1_3, Q07157; [1]): below the threshold
pKd (PTPN13_1, Q12923; [1]): below the threshold
pKd (MAGI1_1, Q96QZ7; [1]): below the threshold
pKd (NHERF2_2, Q15599; [1]): below the threshold
pKd (Inadl_1, Q8NI35; [1]): below the threshold
pKd (LNX1_3, Q8TBB1; [1]): below the threshold
pKd (LRRC7, Q96NW7; [1]): below the threshold
pKd (DFNB31_1, Q9P202; [1]): below the threshold
pKd (MAST2, Q6P0Q8; [1]): below the threshold
pKd (MAGI2_6, Q86UL8; [1]): below the threshold
pKd (DFNB31_3, Q9P202; [1]): 3.89
pKd (Inadl_9, Q8NI35; [1]): below the threshold
pKd (TIAM2, Q8IVF5; [1]): 3.74
pKd (HTRA2, O43464; [1]): below the threshold
pKd (AHNAK1, Q09666; [1]): below the threshold
pKd (LIN7C, Q9NUP9; [1]): 3.76
pKd (NHERF4_2, Q86UT5; [1]): below the threshold
pKd (APBA2_1, Q99767; [1]): below the threshold
pKd (DLG1_3, Q12959; [1]): below the threshold
pKd (MPDZ_12, O75970; [1]): below the threshold
pKd (PDZRN3_1, Q9UPQ7; [1]): below the threshold
pKd (NHERF4_4, Q86UT5; [1]): below the threshold
Binder: FEEEAEEEVA [TUBB4B, P68371]

pKd (DLG1_2, Q12959; [2]): 4.67
pKd (NHERF3_4, Q5T2W1; [2]): below the threshold
pKd (DLG3_1, Q92796; [2]): below the threshold
pKd (ARHGEF11, O15085; [2]): 5.16
pKd (TJP1_3, Q07157; [2]): below the threshold
pKd (PTPN13_1, Q12923; [2]): below the threshold
pKd (MAGI1_1, Q96QZ7; [2]): below the threshold
pKd (NHERF2_2, Q15599; [2]): 3.77
pKd (Inadl_1, Q8NI35; [2]): 3.85
pKd (LNX1_3, Q8TBB1; [2]): below the threshold
pKd (LRRC7, Q96NW7; [2]): below the threshold
pKd (DFNB31_1, Q9P202; [2]): 3.68
pKd (MAST2, Q6P0Q8; [2]): 5.14
pKd (MAGI2_6, Q86UL8; [2]): 4.57
pKd (DFNB31_3, Q9P202; [2]): 4.25
pKd (Inadl_9, Q8NI35; [2]): 3.67
pKd (TIAM2, Q8IVF5; [2]): below the threshold
pKd (HTRA2, O43464; [2]): below the threshold
pKd (AHNAK1, Q09666; [2]): below the threshold
pKd (LIN7C, Q9NUP9; [2]): below the threshold
pKd (NHERF4_2, Q86UT5; [2]): below the threshold
pKd (APBA2_1, Q99767; [2]): below the threshold
pKd (DLG1_3, Q12959; [2]): below the threshold
pKd (MPDZ_12, O75970; [2]): below the threshold
pKd (PDZRN3_1, Q9UPQ7; [2]): below the threshold
pKd (NHERF4_4, Q86UT5; [2]): below the threshold
Binder: DEDQHTQITKV [PTEN_Ac, P60484]
